This note sets out measurements from paper PMC4417145.

For this data set, the target named is T1, HMGA2 (high-mobility-group protein AT-hook 2) (mammalian (species ), UniProt P52926 1-109).
T1 sequence: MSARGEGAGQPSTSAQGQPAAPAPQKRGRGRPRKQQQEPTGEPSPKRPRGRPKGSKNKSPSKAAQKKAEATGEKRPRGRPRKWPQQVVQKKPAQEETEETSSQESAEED
Put plainly: PDI-ELISA.

B1: FL842/FL843 (SELEX1 duplex) (dsDNA)
DNA 1: CCCCCCATATTCGCGATTATTGCGC
DNA 2: GCGCAATAATCGCGAATATGGGGGG
On to B1, for which the binding result is recorded as “binds”.
